T1: Helraiser transposase (RepHel, Helitron) (Myotis lucifugus)
T1 chain: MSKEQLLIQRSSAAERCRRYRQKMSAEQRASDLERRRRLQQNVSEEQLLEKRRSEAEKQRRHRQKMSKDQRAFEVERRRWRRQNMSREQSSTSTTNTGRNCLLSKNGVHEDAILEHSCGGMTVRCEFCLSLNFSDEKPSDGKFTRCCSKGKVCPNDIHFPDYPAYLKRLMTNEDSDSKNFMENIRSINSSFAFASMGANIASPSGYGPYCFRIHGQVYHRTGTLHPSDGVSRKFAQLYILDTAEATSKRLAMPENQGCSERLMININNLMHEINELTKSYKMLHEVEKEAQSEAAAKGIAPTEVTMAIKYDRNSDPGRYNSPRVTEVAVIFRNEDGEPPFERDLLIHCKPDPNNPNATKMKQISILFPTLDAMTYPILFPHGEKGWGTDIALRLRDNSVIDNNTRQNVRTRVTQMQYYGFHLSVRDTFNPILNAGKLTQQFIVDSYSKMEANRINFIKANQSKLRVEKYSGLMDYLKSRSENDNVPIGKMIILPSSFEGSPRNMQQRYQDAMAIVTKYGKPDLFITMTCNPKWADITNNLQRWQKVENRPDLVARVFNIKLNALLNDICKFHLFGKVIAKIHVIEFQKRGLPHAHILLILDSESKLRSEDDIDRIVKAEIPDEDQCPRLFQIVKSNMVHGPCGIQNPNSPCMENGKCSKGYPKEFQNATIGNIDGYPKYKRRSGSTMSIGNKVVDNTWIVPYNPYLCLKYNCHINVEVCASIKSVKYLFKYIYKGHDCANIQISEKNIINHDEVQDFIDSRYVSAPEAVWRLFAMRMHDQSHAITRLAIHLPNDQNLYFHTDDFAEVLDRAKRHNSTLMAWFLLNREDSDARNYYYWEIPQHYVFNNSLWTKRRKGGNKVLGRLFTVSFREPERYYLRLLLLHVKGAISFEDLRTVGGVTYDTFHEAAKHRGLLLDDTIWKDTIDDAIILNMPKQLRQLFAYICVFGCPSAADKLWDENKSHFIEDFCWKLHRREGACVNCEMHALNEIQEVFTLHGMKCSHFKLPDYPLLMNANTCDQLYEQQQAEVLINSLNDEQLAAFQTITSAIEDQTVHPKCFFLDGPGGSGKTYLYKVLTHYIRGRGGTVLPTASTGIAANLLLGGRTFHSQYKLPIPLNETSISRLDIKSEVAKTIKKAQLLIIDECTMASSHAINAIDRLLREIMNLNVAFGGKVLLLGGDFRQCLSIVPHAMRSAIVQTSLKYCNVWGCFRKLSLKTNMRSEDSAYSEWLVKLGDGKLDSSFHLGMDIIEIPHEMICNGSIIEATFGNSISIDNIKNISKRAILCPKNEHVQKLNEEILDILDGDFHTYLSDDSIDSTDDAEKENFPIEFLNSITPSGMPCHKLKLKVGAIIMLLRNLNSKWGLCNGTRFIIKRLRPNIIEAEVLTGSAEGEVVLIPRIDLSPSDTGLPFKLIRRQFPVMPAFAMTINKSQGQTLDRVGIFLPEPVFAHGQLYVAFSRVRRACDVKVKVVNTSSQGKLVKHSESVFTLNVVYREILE


Key:
[1] = target: T1, Helraiser transposase (RepHel, Helitron); assay: EMSA; 10 mM MgCl2, 100 mM NaCl, pH 7.5, RT; 50 nM oligo; text says cleavage-assay oligonucleotides; settings: tags: His tag (pFastBac HT-A), TEV-cleaved; insect cells; label: 6-FAM
Protocol: (§1) Binding of the Helraiser transposase to various DNA oligonucleotides was measured by EMSA using 6% TBE gels (Invitrogen). Purified protein at 15 nM-150 nM was incubated for 30 min at room temperature in binding buffer (50 mM Tris pH 7.5, 100 mM NaCl, 10 mM MgCl₂, 0.5 mM ETDA, 1 mM TCEP) with 50 nM 6-FAM labeled oligonucleotides. After addition of DNA gel loading solution (Quality Biological, INC), samples were run on 6% TBE gels and visualized.

[2] = target: T1, Helraiser transposase (RepHel, Helitron); assay: EMSA; text says cleavage-assay oligonucleotides bound; settings: tags: His tag (pFastBac HT-A), TEV-cleaved, insect cells, label: 6-FAM
Protocol: as §1

Binder	binding result [2]	other results
CACCATATGATCCTATATAATAAAAGAGAAACATGCAAATTGACCATCCC (ssDNA) [Helraiser LTS substrate (+), top strand]		binding result [1]: binds
GGGATGGTCAATTTGCATGTTTCTCTTTTATTATATAGGATCATATGGTG (ssDNA, [NONE]) [Helraiser LTS substrate (-), bottom strand]	binds	
CCCTTTCAATGTGCACGAATTTCGTGCACCGGGCCACTAGTATATATATA (ssDNA) [Helraiser RTS substrate (+), top strand]		binding result ([2]; potential hairpin (19-nt palindrome)): binds
TATATATATACTAGTGGCCCGGTGCACGAAATTCGTGCACATTGAAAGGG (ssDNA, [NONE]) [Helraiser RTS substrate (-), bottom strand]	binds	

From patent US20190323037, “REPLICATIVE TRANSPOSON SYSTEM” (HORIZON DISCOVERY LIMITED, published 2019)
